Five molecules from publication PMC8307404, “Crystal Structure-Guided Design of Bisubstrate Inhibitors and Photoluminescent Probes for Protein Kinases of the PIM Family” (Molecules, 2021) can be followed below.

Square brackets hold non-standard residues; d marks the D form. Peptide text beside a SMILES is read from it. * marks the point of attachment. X3 = O=C(CCCCCNCc1nc2c(sc3cc(Br)cnc32)c(=O)[nH]1)*

Holding throughout (assay): Kinase profiling (radiometric filter-binding)
Holding throughout (type): biochemical

For one data set, the target named is Aurora B (Homo sapiens, UniProt Q96GD4). Particulars: 1 µM inhibitor, read-out: Residual activity, %. The method in brief:
(§1)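 Filter-binding radiometric assays of human kinases measure the fraction of activity that persists with 1 µM inhibitor (final). ATP is supplied at KM or lower for each target.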

The target of another data set is CK2 (Homo sapiens, UniProt P68400). The conditions noted are these: CK2, 1 µM inhibitor; read-out: Residual activity, %. In outline:
as §1

For a further data set, the target named is ERK5 (Homo sapiens, UniProt Q13164). Particulars: ERK5, 1 µM inhibitor; read-out: Residual activity, %. In outline:
as §1

For the next data set, the target named is HIPK3 (Homo sapiens, UniProt Q9H422). The conditions noted are these: HIPK3, 1 µM inhibitor; read-out: Residual activity, %. The method in brief: as §1
HIPK3, sequence (Q9H422 whole entry): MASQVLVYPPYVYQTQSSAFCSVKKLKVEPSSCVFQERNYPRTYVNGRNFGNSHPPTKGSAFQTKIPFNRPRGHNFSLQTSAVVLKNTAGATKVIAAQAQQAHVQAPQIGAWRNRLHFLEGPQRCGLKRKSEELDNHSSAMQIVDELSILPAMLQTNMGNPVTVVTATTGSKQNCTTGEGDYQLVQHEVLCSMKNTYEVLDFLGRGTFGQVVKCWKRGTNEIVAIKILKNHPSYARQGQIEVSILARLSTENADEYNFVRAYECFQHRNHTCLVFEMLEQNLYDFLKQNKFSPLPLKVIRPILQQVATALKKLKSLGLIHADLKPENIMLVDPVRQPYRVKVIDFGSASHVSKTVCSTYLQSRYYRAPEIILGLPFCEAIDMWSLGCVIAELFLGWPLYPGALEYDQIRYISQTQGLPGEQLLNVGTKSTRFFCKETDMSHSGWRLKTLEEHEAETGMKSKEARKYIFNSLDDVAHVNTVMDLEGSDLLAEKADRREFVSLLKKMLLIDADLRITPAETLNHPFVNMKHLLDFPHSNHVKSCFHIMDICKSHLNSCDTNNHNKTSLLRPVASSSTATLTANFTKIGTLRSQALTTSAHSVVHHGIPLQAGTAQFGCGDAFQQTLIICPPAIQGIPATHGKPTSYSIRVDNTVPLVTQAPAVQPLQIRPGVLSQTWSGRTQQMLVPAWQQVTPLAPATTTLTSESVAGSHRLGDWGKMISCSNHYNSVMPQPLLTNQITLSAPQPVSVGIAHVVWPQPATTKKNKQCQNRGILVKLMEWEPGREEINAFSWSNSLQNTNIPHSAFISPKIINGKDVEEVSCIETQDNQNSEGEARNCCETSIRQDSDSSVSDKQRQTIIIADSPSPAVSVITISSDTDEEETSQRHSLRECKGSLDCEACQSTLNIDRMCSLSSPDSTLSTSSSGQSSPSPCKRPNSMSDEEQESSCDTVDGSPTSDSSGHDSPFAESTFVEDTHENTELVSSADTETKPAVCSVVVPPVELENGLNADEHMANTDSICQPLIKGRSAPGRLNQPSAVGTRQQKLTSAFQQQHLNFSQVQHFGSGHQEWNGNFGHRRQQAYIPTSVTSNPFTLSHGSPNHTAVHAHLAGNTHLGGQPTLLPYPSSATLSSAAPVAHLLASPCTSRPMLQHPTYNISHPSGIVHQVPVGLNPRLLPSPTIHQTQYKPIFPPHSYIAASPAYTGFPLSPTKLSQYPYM
The target of the next data set is T1, IKK (Homo sapiens, UniProt O14920).
T1 sequence (O14920 1-756): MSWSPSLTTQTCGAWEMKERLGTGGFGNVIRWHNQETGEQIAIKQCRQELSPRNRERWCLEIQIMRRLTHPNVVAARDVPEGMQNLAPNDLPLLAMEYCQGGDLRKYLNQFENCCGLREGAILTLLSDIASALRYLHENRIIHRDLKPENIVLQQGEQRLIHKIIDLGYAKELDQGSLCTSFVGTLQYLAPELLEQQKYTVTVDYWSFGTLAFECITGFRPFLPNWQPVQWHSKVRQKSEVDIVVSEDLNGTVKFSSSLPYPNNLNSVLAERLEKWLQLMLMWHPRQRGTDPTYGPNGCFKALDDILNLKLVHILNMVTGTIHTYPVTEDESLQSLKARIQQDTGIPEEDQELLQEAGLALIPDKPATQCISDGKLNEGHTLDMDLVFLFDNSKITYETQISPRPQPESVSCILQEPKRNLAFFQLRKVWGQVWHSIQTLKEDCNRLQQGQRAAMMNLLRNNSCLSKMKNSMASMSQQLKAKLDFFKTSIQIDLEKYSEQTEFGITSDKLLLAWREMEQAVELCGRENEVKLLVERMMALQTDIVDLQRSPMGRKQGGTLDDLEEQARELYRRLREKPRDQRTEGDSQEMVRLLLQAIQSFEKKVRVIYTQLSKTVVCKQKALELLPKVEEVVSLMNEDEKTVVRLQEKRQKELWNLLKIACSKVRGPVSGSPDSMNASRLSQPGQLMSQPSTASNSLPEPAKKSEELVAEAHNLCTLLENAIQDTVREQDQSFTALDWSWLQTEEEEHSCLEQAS
Particulars: first of two IKK lines (Greek letter lost), 1 µM inhibitor, read-out: Residual activity, %. In outline:
as §1

Another data set addresses MARK1 (Homo sapiens, UniProt Q9P0L2). The conditions noted are these: MARK1, 1 µM inhibitor; read-out: Residual activity, %. The method in brief:
as §1

A further data set has as its target PAK2 (Homo sapiens, UniProt Q13177). The conditions noted are these: PAK2, 1 µM inhibitor; read-out: Residual activity, %. The method in brief: as §1
Another data set concerns the target PKA (Homo sapiens, UniProt P17612). The conditions noted are these: 1 µM inhibitor, read-out: Residual activity, %. The method in brief: as §1
A further data set concerns the target SYK (Homo sapiens, UniProt P43405). Particulars: 1 µM inhibitor, read-out: Residual activity, %. The method in brief:
as §1

A further data set addresses T2, TLK1 (Homo sapiens, UniProt Q9UKI8).
T2 sequence (Q9UKI8 1-766): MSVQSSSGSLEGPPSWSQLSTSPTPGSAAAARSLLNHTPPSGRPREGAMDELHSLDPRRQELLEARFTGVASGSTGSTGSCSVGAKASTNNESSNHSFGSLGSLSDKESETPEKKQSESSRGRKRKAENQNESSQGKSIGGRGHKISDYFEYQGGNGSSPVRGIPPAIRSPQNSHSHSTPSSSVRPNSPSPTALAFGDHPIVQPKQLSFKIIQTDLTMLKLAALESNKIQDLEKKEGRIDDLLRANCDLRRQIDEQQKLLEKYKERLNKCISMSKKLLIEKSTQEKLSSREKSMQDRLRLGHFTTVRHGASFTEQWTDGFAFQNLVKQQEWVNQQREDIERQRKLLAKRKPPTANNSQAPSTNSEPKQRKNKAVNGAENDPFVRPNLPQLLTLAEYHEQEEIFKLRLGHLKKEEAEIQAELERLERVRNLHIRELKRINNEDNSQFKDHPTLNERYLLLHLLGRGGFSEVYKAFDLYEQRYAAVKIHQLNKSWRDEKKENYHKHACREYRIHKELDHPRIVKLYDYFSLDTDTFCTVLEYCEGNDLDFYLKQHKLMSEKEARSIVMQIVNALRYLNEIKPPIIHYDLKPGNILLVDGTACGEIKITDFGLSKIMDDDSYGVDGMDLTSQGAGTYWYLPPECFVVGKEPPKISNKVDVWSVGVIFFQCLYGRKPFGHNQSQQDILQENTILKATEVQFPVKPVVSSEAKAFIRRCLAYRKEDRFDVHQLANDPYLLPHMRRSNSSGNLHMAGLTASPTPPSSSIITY
Particulars: TLK1, 1 µM inhibitor; read-out: Residual activity, %. The method in brief:
as §1

In another data set the target is T3, VEG-FR (Homo sapiens, UniProt P17948).
T3 sequence (P17948 784-1338 limits assumed): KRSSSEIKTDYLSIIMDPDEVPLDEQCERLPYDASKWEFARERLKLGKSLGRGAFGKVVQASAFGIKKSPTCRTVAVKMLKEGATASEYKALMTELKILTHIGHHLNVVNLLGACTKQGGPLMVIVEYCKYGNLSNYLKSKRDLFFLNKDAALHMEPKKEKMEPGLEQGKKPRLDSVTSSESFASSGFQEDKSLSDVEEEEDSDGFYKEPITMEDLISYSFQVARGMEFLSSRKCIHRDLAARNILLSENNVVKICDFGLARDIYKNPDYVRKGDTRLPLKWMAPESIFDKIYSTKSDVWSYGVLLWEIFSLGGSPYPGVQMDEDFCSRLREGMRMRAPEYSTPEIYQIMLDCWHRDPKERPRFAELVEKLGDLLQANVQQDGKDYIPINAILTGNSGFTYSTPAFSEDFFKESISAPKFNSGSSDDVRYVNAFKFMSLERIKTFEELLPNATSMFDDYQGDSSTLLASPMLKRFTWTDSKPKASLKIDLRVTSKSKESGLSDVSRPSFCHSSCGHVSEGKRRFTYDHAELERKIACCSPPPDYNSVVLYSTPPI
Particulars: 1 µM inhibitor, read-out: Residual activity, %. In outline: as §1

CK2, sequence (P68400 whole entry): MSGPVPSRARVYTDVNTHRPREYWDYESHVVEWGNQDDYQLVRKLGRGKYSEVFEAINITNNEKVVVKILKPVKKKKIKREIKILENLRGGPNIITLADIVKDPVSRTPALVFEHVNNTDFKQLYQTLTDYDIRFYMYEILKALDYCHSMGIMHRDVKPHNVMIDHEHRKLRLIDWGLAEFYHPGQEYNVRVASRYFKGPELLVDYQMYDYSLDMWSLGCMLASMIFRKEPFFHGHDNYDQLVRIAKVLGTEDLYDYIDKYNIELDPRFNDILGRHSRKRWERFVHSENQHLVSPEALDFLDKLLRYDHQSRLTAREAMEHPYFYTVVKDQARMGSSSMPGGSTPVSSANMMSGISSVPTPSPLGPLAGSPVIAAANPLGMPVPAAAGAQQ
ERK5, sequence (Q13164 whole entry): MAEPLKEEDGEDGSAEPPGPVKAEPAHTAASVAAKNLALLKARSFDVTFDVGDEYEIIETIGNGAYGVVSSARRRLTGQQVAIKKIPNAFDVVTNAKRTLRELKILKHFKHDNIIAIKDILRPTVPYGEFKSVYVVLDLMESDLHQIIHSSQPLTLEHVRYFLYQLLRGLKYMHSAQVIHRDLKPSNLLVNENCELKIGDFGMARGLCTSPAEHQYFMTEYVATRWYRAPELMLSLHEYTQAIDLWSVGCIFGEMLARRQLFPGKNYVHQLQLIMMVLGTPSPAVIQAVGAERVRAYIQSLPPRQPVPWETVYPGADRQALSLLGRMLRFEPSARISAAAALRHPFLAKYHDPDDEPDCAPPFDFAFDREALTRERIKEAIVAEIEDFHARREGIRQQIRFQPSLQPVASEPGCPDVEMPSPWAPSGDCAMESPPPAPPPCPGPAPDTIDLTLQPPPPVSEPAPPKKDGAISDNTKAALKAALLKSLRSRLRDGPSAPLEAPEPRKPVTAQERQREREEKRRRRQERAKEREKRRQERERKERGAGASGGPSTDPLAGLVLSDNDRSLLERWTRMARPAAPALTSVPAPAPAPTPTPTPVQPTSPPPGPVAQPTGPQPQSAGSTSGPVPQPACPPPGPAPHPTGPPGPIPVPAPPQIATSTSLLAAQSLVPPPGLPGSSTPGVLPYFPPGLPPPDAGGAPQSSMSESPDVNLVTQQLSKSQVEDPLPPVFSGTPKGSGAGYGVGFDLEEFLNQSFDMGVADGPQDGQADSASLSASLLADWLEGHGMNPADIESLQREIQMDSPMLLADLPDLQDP
MARK1, sequence (Q9P0L2 whole entry): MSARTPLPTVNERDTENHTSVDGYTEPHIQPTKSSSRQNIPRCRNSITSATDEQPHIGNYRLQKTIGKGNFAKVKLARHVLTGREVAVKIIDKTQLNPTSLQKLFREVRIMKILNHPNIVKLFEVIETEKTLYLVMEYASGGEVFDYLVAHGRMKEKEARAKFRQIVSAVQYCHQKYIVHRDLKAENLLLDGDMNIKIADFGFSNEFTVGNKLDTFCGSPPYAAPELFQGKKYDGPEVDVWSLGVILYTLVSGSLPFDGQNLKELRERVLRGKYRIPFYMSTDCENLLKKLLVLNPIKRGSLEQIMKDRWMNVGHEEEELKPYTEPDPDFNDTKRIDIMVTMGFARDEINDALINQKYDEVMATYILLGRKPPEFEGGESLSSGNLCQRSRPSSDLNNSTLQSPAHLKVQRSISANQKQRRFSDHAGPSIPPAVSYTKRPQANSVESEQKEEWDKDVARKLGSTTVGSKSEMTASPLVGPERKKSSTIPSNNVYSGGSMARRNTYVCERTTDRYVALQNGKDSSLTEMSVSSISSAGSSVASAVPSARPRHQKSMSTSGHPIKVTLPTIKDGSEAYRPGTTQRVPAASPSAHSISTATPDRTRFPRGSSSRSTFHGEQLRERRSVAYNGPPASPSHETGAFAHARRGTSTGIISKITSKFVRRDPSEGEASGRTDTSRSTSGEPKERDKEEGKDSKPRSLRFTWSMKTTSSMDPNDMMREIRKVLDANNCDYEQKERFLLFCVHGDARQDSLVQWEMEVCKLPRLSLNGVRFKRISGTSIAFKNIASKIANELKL
Aurora B, sequence (Q96GD4 whole entry): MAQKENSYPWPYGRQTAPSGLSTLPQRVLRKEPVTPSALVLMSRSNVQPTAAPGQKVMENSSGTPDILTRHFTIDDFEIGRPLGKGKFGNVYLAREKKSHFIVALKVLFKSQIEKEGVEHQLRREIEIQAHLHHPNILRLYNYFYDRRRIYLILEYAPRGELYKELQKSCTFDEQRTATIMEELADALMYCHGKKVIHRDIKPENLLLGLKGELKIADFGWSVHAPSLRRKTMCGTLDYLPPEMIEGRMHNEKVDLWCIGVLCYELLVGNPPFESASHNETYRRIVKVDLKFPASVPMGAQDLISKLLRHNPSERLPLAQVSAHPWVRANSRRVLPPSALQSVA
PAK2, sequence (Q13177 whole entry): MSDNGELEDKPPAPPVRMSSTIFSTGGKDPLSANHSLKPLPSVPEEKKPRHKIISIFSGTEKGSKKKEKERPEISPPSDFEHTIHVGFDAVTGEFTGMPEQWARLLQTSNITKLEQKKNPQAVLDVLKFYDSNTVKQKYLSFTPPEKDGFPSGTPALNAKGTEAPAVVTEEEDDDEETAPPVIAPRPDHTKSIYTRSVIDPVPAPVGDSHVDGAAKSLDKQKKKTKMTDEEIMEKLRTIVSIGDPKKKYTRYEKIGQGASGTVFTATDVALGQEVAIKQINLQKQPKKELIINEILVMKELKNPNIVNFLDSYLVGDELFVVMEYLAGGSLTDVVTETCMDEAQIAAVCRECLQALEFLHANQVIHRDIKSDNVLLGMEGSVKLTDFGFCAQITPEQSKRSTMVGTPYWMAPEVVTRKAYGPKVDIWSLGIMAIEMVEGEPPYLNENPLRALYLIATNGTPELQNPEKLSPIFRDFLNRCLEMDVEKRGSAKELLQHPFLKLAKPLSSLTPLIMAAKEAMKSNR

Consider `N=C(N)NCCC[C@@H](NC(=O)CCCCCNCc1nc2c(sc3cc(Br)cnc32)c(=O)[nH]1)C(=O)N[C@H](CCCNC(=N)N)C(=O)N[C@H](CCCNC(=N)N)C(=O)N[C@H](CCCNC(=N)N)C(=O)N[C@H](CCCNC(=N)N)C(=O)N[C@H](CCCNC(=N)N)C(=O)N[C@H](CCCCN)C(N)=O` [ARC-3126, BPTP-Ahx-(D-Arg)6-D-Lys-NH2] (X3-[dR][dR][dR][dR][dR][dR][dK]-NH2), for which the remaining activity at 1 µM worked out at 114 ± 20% in the data set with Aurora B; 8 ± 3% with CK2; 92 ± 1% with ERK5; 93 ± 2% with HIPK3; 104 ± 2% with IKK; 94% in the data set with MARK1. Besides, the remaining activity at 1 µM with PAK2 came out at 72 ± 5%; with PKA, 97%; with SYK it was 75 ± 20%; with TLK1 it was 91 ± 10%; in the data set with VEG-FR, 85%.
As for `N=C(N)NCCC[C@@H](NC(=O)CNC(=O)[C@@H](CCCNC(=N)N)NC(=O)[C@@H](CCCNC(=N)N)NC(=O)CCCCCCCNCc1nc2c(sc3ccc(Br)cc32)c(=O)[nH]1)C(=O)N[C@H](CCCCN)C(N)=O` [Compound 2, BBTP-Aoc-(D-Arg)2-Gly-D-Arg-D-Lys-NH2], the remaining activity at 1 µM came to 98 ± 2% with Aurora B; 63 ± 12% in the data set with CK2; 77 ± 5% with ERK5; 72 ± 12% in the data set with HIPK3; 100 ± 11% in the data set with IKK; 113 ± 1% with MARK1. Also, the remaining activity at 1 µM with PAK2 is 100 ± 10%; with PKA, 85 ± 6%; with SYK, 123 ± 3%; in the data set with TLK1, 122 ± 9%; with VEG-FR, 96 ± 3%.
Consider `N=C(N)NCCC[C@@H](NC(=O)CNC(=O)[C@@H](CCCNC(=N)N)NC(=O)[C@@H](CCCNC(=N)N)NC(=O)Cn1cc(CNCc2nc3c(sc4ccc(Br)cc43)c(=O)[nH]2)nn1)C(=O)N[C@H](CCCCN)C(N)=O` [Compound 3, BBTP-Amt-(D-Arg)2-Gly-D-Arg-D-Lys-NH2], for which the remaining activity at 1 µM in the data set with Aurora B is 111 ± 1%; in the data set with CK2 it was 57 ± 7%; in the data set with ERK5, 93 ± 4%; in the data set with HIPK3, 57 ± 7%; in the data set with IKK, 90 ± 6%; with MARK1, 106 ± 2%. In addition, the remaining activity at 1 µM with PAK2 came to 91 ± 4%; with PKA, 82 ± 10%; with SYK, 114 ± 2%; with TLK1 it was 109 ± 10%; with VEG-FR, 90 ± 5%.
Take `N=C(N)NCCC[C@@H](NC(=O)CCCCCNC(=O)Cn1cnc2c(I)c(I)c(I)c(I)c21)C(=O)N[C@H](CCCNC(=N)N)C(=O)N[C@H](CCCNC(=N)N)C(=O)N[C@H](CCCNC(=N)N)C(=O)N[C@H](CCCNC(=N)N)C(=O)N[C@H](CCCNC(=N)N)C(=O)N[C@H](CCCCN)C(N)=O` [ARC-3125, TIBI-CH2-C(=O)-Ahx-(D-Arg)6-D-Lys-NH2]: the remaining activity at 1 µM was 100 ± 4% with Aurora B; 30 ± 2% with CK2; 47 ± 1% with ERK5; 21% with HIPK3; 80 ± 1% in the data set with IKK; 76 ± 4% with MARK1. Besides, the remaining activity at 1 µM amounted to 29 ± 4% with PAK2; 7 ± 3% in the data set with PKA; 94 ± 10% with SYK; 78 ± 1% in the data set with TLK1; 95 ± 41% in the data set with VEG-FR.
With `N=C(N)NCCC[C@@H](NC(=O)CNC(=O)[C@@H](CCCNC(=N)N)NC(=O)[C@@H](CCCNC(=N)N)NC(=O)CCCCCCCNCc1nc2c(sc3cc(Br)cnc32)c(=O)[nH]1)C(=O)N[C@H](CCCCN)C(N)=O` [Compound 1, BPTP-Aoc-(D-Arg)2-Gly-D-Arg-D-Lys-NH2], the remaining activity at 1 µM came out at 102 ± 19% in the data set with Aurora B; 77 ± 9% with CK2; 111 ± 9% in the data set with ERK5; 116 ± 15% with HIPK3; 97% in the data set with IKK; 110 ± 15% in the data set with MARK1. Besides, the remaining activity at 1 µM with PAK2 was 99 ± 9%; in the data set with PKA, 100 ± 9%; with SYK it was 133 ± 15%; with TLK1 it was 118 ± 1%; in the data set with VEG-FR, 110 ± 9%.
